# Test results taken from US20190015483A1 (CSL BEHRING RECOMBINANT FACILITY, published 2019).
# T1: recombinant Factor VIII (CSL627, rVIII-SingleChain) (Homo sapiens (Human), UniProt P00451 20-2351)
# T1 construct: also called FVIII
# T1 sequence: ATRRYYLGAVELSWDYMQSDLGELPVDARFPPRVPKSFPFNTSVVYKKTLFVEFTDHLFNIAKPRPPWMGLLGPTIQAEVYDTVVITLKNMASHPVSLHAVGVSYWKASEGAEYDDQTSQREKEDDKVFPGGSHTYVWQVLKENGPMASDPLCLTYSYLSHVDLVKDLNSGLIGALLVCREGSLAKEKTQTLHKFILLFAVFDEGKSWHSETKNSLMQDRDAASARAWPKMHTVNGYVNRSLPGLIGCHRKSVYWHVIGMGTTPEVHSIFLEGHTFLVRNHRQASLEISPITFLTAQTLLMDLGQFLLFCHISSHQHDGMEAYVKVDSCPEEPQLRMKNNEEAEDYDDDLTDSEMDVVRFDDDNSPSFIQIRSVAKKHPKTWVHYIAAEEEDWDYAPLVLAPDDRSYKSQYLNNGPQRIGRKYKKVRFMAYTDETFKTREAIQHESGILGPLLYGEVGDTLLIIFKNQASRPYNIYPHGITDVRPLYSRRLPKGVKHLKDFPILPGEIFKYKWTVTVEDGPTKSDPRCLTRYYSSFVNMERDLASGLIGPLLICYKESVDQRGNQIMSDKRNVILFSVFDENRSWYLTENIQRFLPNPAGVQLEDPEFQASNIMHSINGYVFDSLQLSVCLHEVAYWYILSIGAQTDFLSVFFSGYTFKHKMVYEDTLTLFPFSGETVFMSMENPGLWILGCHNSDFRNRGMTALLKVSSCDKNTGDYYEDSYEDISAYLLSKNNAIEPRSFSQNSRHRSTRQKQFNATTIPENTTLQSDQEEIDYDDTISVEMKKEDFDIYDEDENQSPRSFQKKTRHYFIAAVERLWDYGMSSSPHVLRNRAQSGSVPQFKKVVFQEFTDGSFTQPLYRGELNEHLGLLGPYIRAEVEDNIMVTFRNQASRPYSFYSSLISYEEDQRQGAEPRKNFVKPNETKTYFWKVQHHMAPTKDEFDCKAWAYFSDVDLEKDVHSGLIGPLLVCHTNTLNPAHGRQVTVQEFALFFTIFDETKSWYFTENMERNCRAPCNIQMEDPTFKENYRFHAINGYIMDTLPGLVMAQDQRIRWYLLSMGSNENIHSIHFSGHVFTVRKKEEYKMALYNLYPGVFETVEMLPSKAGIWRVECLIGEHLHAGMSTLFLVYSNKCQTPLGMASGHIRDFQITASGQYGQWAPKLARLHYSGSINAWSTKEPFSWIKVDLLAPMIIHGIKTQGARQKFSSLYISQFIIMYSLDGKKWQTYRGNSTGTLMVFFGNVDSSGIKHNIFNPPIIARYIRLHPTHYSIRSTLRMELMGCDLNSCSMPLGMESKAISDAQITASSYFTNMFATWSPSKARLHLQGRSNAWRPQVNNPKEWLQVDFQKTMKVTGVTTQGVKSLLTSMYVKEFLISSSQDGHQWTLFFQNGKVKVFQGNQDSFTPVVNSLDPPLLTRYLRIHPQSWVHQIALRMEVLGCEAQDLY
# Biological target: T1, recombinant Factor VIII (CSL627, …)
# Experiment: SPR, anti-His capture, FVIII injected, 37 C
# Summary of the method: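 Anti-His antibody (14,000 RU) captures each mutant from culture supernatant to 40-150 RU. Single-concentration FVIII injection (1 nM) over 5 min, then dissociation tracked for 5 min. Kinetics derive from 1:1 fitting after double referencing.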
Binder,Kd [nM],koff [s⁻¹],kon [M⁻¹ s⁻¹]
Hu-vWF[764-1270]-8His S766Y-R768I (other) SLYCIPPMVKLVCPADNLRAEGLECTKTCQNYDLECMSMGCVSGCLCPPGMVRHENRCVALERCPCFHQGKEYAPGETVKIGCNTCVCRDRKWNCTDHVCDATCSTIGMAHYLTFDGLKYLFPGECQYVLVQDYCGSNPGTFRILVGNKGCSHPSVKCKKRVTILVEGGEIELFDGEVNVKRPMKDETHFEVVESGRYIILLLGKALSVVWDRHLSISVVLKQTYQEKVCGLCGNFDGIQNNDLTSSNLQVEEDPVDFGNSWKVSSQCADTRKVPLDSSPATCHNNIMKQTMVDSSCRILTSDVFQDCNKLVDPEPYLDVCIYDTCSCESIGDCACFCDTIAAYAHVCAQHGKVVTWRTATLCPQSCEERNLRENGYECEWRYNSCAPACQVTCQHPEPLACPVQCVEGCHAHCPPGKILDELLQTCVDPEDCPVCEVAGRRFASGKKVTLNPSDPEHCQICHCDVVNLTCEACQEPGGLVVPPTDAPVSPTTLYVEDISEPPLHDFHHHHHHHH,0.179,0.000899,5.03e+06
Hu-vWF[764-1270]-8His S766Y-R768N (other) SLYCNPPMVKLVCPADNLRAEGLECTKTCQNYDLECMSMGCVSGCLCPPGMVRHENRCVALERCPCFHQGKEYAPGETVKIGCNTCVCRDRKWNCTDHVCDATCSTIGMAHYLTFDGLKYLFPGECQYVLVQDYCGSNPGTFRILVGNKGCSHPSVKCKKRVTILVEGGEIELFDGEVNVKRPMKDETHFEVVESGRYIILLLGKALSVVWDRHLSISVVLKQTYQEKVCGLCGNFDGIQNNDLTSSNLQVEEDPVDFGNSWKVSSQCADTRKVPLDSSPATCHNNIMKQTMVDSSCRILTSDVFQDCNKLVDPEPYLDVCIYDTCSCESIGDCACFCDTIAAYAHVCAQHGKVVTWRTATLCPQSCEERNLRENGYECEWRYNSCAPACQVTCQHPEPLACPVQCVEGCHAHCPPGKILDELLQTCVDPEDCPVCEVAGRRFASGKKVTLNPSDPEHCQICHCDVVNLTCEACQEPGGLVVPPTDAPVSPTTLYVEDISEPPLHDFHHHHHHHH,0.191,0.000798,4.18e+06
Hu-vWF[764-1270]-8His S766Y-R768P (other) SLYCPPPMVKLVCPADNLRAEGLECTKTCQNYDLECMSMGCVSGCLCPPGMVRHENRCVALERCPCFHQGKEYAPGETVKIGCNTCVCRDRKWNCTDHVCDATCSTIGMAHYLTFDGLKYLFPGECQYVLVQDYCGSNPGTFRILVGNKGCSHPSVKCKKRVTILVEGGEIELFDGEVNVKRPMKDETHFEVVESGRYIILLLGKALSVVWDRHLSISVVLKQTYQEKVCGLCGNFDGIQNNDLTSSNLQVEEDPVDFGNSWKVSSQCADTRKVPLDSSPATCHNNIMKQTMVDSSCRILTSDVFQDCNKLVDPEPYLDVCIYDTCSCESIGDCACFCDTIAAYAHVCAQHGKVVTWRTATLCPQSCEERNLRENGYECEWRYNSCAPACQVTCQHPEPLACPVQCVEGCHAHCPPGKILDELLQTCVDPEDCPVCEVAGRRFASGKKVTLNPSDPEHCQICHCDVVNLTCEACQEPGGLVVPPTDAPVSPTTLYVEDISEPPLHDFHHHHHHHH,0.213,0.00143,6.71e+06
Hu-vWF[764-1270]-8His S766Y-R768M (other) SLYCMPPMVKLVCPADNLRAEGLECTKTCQNYDLECMSMGCVSGCLCPPGMVRHENRCVALERCPCFHQGKEYAPGETVKIGCNTCVCRDRKWNCTDHVCDATCSTIGMAHYLTFDGLKYLFPGECQYVLVQDYCGSNPGTFRILVGNKGCSHPSVKCKKRVTILVEGGEIELFDGEVNVKRPMKDETHFEVVESGRYIILLLGKALSVVWDRHLSISVVLKQTYQEKVCGLCGNFDGIQNNDLTSSNLQVEEDPVDFGNSWKVSSQCADTRKVPLDSSPATCHNNIMKQTMVDSSCRILTSDVFQDCNKLVDPEPYLDVCIYDTCSCESIGDCACFCDTIAAYAHVCAQHGKVVTWRTATLCPQSCEERNLRENGYECEWRYNSCAPACQVTCQHPEPLACPVQCVEGCHAHCPPGKILDELLQTCVDPEDCPVCEVAGRRFASGKKVTLNPSDPEHCQICHCDVVNLTCEACQEPGGLVVPPTDAPVSPTTLYVEDISEPPLHDFHHHHHHHH,0.196,0.000801,4.08e+06
Hu-vWF[764-1270]-8His S766Y-R768K (other) SLYCKPPMVKLVCPADNLRAEGLECTKTCQNYDLECMSMGCVSGCLCPPGMVRHENRCVALERCPCFHQGKEYAPGETVKIGCNTCVCRDRKWNCTDHVCDATCSTIGMAHYLTFDGLKYLFPGECQYVLVQDYCGSNPGTFRILVGNKGCSHPSVKCKKRVTILVEGGEIELFDGEVNVKRPMKDETHFEVVESGRYIILLLGKALSVVWDRHLSISVVLKQTYQEKVCGLCGNFDGIQNNDLTSSNLQVEEDPVDFGNSWKVSSQCADTRKVPLDSSPATCHNNIMKQTMVDSSCRILTSDVFQDCNKLVDPEPYLDVCIYDTCSCESIGDCACFCDTIAAYAHVCAQHGKVVTWRTATLCPQSCEERNLRENGYECEWRYNSCAPACQVTCQHPEPLACPVQCVEGCHAHCPPGKILDELLQTCVDPEDCPVCEVAGRRFASGKKVTLNPSDPEHCQICHCDVVNLTCEACQEPGGLVVPPTDAPVSPTTLYVEDISEPPLHDFHHHHHHHH,0.109,0.000417,3.83e+06
Hu-vWF[764-1270]-8His S766Y-R768L (other) SLYCLPPMVKLVCPADNLRAEGLECTKTCQNYDLECMSMGCVSGCLCPPGMVRHENRCVALERCPCFHQGKEYAPGETVKIGCNTCVCRDRKWNCTDHVCDATCSTIGMAHYLTFDGLKYLFPGECQYVLVQDYCGSNPGTFRILVGNKGCSHPSVKCKKRVTILVEGGEIELFDGEVNVKRPMKDETHFEVVESGRYIILLLGKALSVVWDRHLSISVVLKQTYQEKVCGLCGNFDGIQNNDLTSSNLQVEEDPVDFGNSWKVSSQCADTRKVPLDSSPATCHNNIMKQTMVDSSCRILTSDVFQDCNKLVDPEPYLDVCIYDTCSCESIGDCACFCDTIAAYAHVCAQHGKVVTWRTATLCPQSCEERNLRENGYECEWRYNSCAPACQVTCQHPEPLACPVQCVEGCHAHCPPGKILDELLQTCVDPEDCPVCEVAGRRFASGKKVTLNPSDPEHCQICHCDVVNLTCEACQEPGGLVVPPTDAPVSPTTLYVEDISEPPLHDFHHHHHHHH,0.129,0.000548,4.24e+06
Hu-vWF[764-1270]-8His S766Y-R768Q (other) SLYCQPPMVKLVCPADNLRAEGLECTKTCQNYDLECMSMGCVSGCLCPPGMVRHENRCVALERCPCFHQGKEYAPGETVKIGCNTCVCRDRKWNCTDHVCDATCSTIGMAHYLTFDGLKYLFPGECQYVLVQDYCGSNPGTFRILVGNKGCSHPSVKCKKRVTILVEGGEIELFDGEVNVKRPMKDETHFEVVESGRYIILLLGKALSVVWDRHLSISVVLKQTYQEKVCGLCGNFDGIQNNDLTSSNLQVEEDPVDFGNSWKVSSQCADTRKVPLDSSPATCHNNIMKQTMVDSSCRILTSDVFQDCNKLVDPEPYLDVCIYDTCSCESIGDCACFCDTIAAYAHVCAQHGKVVTWRTATLCPQSCEERNLRENGYECEWRYNSCAPACQVTCQHPEPLACPVQCVEGCHAHCPPGKILDELLQTCVDPEDCPVCEVAGRRFASGKKVTLNPSDPEHCQICHCDVVNLTCEACQEPGGLVVPPTDAPVSPTTLYVEDISEPPLHDFHHHHHHHH,0.174,0.000606,3.48e+06
